Results reported in US10456451B2, “Protease-resistant mutants of stromal cell derived factor-1 in the repair of tissue damage” (Mesoblast International Sàrl, priority 2010, dated 2019).

Biological target: T1, MMP-2 (Homo sapiens, UniProt P08253)
T1 construct: purchased R&D Systems
T1 sequence (P08253 110-660): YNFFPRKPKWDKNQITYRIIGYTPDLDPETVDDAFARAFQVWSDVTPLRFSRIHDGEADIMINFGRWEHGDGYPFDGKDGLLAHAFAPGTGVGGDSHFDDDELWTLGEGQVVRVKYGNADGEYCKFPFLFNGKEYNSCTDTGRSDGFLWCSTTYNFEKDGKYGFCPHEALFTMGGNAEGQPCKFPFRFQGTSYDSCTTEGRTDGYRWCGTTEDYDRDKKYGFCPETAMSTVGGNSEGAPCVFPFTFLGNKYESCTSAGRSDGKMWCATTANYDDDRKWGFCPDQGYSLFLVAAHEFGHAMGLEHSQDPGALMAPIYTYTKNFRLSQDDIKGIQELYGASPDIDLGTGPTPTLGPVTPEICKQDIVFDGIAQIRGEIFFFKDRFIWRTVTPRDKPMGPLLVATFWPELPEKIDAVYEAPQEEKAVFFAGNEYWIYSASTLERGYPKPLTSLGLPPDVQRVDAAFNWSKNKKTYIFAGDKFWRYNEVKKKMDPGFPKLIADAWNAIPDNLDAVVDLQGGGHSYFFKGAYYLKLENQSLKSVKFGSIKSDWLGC
Experiment: MMP-2 cleavage of Sumo fusion proteins, SDS-PAGE
Assay type: biochemical
Experimental: Human recombinant MMP-2 (R&D Systems) was activated for 1 hour with 4-aminophenylmercuric acetate (APMA, 1 mM) at 37° C. 4 μg of Sumo-SSDF-1-RAD or Sumo-SSDF-1(S4V)-RAD was incubated for 1 hour to 48 hours at 21° C. with 50 ng of activated MMP-2 in TCNB buffer (50 mM Tris, pH 7.5, 10 mM CaCl2, 150 mM NaCl, 0.05% Brij-35). Sample loading buffer (Invitrogen) and 2-mercaptoethanol (0.5 M, final concentration) were added, and samples were boiled for 5 minutes and run on a 10% Bis-Tris gel. Proteins used for this experiment were obtained after cation-exchange chromatography, but were neither cleaved by Sumo-protease nor purified by RPC-HPLC.

## SDF-1(S4V): SDF-1 with Ser→Val at position 4, SEQ ID NO:65
  rate of cleavage lower than SDF-1: at least 48 times
